Bounds are passed on as bounds.

Among the data in publication PMC6275495 are percent of total associated with anti-PDGFR-IPs values, retold here.

The target in this test is PDGFRs (PDGFRα and PDGFRβ subunit dimers) (mouse (endogenous in MEFs)) (UniProt P26618). Briefly: affinity purification with mass spectrometry.
Sequence of UniProt P26618 (P26618 25-1089, chain 1 of 2): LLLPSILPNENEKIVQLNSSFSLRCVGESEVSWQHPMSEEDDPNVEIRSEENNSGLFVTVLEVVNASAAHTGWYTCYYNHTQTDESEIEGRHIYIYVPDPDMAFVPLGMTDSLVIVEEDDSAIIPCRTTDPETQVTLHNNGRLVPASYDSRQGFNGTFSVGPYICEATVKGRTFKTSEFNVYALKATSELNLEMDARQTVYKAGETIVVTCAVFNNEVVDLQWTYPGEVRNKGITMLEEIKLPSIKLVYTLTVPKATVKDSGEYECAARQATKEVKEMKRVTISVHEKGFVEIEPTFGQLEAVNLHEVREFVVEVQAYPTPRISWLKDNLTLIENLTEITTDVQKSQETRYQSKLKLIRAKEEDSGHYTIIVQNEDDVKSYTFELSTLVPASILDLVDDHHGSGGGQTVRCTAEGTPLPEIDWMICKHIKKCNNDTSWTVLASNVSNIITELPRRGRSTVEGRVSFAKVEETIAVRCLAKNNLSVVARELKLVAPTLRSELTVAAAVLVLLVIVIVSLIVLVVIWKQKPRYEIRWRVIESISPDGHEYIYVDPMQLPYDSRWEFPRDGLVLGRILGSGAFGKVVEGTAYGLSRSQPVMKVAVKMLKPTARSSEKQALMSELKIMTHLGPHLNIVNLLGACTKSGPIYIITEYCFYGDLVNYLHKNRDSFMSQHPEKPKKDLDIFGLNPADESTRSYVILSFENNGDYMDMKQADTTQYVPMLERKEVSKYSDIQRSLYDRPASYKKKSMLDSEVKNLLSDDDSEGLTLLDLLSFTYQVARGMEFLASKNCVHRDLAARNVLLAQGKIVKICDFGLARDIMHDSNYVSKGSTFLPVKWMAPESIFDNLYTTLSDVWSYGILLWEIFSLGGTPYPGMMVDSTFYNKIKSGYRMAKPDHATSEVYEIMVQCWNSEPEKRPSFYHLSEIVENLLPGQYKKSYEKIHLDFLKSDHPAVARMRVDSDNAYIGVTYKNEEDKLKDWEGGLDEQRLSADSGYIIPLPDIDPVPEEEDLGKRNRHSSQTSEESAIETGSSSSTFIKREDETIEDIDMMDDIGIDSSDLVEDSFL
Sequence of UniProt P26618 (P05622 32-1098, chain 2 of 2, further chain): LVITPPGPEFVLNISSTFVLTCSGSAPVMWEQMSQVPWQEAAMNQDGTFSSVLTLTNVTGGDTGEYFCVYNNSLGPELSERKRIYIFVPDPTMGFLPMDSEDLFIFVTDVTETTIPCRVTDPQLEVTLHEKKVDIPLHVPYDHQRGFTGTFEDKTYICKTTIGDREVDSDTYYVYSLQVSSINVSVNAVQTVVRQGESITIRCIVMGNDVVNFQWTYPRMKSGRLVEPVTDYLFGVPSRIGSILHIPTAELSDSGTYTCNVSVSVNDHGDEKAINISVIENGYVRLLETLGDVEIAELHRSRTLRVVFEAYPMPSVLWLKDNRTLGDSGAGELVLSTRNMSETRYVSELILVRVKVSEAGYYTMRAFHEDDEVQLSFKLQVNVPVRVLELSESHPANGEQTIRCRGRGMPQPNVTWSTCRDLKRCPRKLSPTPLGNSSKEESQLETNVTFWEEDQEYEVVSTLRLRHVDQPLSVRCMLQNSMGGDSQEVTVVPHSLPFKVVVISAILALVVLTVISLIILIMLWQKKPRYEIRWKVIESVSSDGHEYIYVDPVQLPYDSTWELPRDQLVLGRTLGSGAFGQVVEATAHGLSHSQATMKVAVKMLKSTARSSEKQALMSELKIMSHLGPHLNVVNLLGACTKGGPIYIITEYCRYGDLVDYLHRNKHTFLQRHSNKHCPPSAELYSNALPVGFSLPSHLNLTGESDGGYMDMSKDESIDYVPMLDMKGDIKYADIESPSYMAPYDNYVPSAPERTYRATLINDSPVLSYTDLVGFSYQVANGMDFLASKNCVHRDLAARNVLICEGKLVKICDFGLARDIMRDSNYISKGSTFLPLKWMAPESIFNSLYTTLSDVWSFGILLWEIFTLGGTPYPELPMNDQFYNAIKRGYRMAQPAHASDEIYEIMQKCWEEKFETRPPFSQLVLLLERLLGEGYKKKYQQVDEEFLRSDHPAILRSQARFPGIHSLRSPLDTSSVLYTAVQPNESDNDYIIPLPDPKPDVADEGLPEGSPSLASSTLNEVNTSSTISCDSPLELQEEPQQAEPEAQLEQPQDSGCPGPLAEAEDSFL

In turn, total p85 gave a percent of total associated with anti-PDGFR-IPs of over 80%.
